The record followed here is patent publication CN106699884A (ZONHON BIOPHARMA INST INC; GENSUN INST BIOMEDICINE CO LTD, dated 2017).

The assay has as its target T1, 人C-反应蛋白 (human C-reactive protein, extracted from human plasma, HyTest) (human, UniProt P02741 19-224).
T1 construct: mature; Native protein from plasma; In the Western blot it was run on both non-denaturing and SDS gels; also called CRP; 天然CRP
T1 sequence (looked up): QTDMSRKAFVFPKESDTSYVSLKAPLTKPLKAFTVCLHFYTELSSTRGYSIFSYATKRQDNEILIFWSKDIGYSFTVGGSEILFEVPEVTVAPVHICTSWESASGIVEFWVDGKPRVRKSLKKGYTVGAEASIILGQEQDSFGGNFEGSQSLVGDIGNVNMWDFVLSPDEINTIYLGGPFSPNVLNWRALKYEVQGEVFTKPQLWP
The assay is described as follows: Western blot, HRP-labelled scFv on native CRP from non-denaturing and SDS-PAGE gels. (A western blot detects proteins with antibodies after separation by electrophoresis.)

B1: 单链抗体P20 (anti-human C-reactive protein scFv P20) (scFv)
scFv: EVMLVESGGGLVKPGGSLKLSCAASGFTFSSYAMSWVRQTPERRLEWVATISTSGSDRYYPDSVKWRFTISRDSAKNILYLQMSSLRSEDTAMYYCARRGWDYWGQGTSVTVSAGGGGSGGGGSGGGGSDVVMTQTPLSLPVSLGDQASISCRSSQSLVHSNGNTYLHWYLQKSGQSPKLLLYKVSNRFSGVSDRFSGSGSGTDFTLKISRVEAEDLGVYFCSQNTHVPPTFGGGTKLEIKR
notes: Recombinant scFv made in E. coli BL21(DE3) and purified on HisTrap HP; It was HRP-labelled (P20-HRP) in the Western blot and was the coating antibody on nitrocellulose in the colloidal gold card; also called P20-scFv-(HIS)6; P20-HRP
Consider B1, for which the binding result is recorded as “binds”.
